# Experimental data taken from patent US5134121A, “Nerve growth factor peptides” (Regents of the University of California, priority 1991, dated 1992).
# Where a SMILES comes first, the peptide text is derived from it.
# B1: NGF: purified from male mouse submaxillary gland; β-NGF is a dimer of two identical 118 amino acid chains (protein, UniProt P01139 122-241, looked up)
# Beta-nerve growth factor: SSTHPVFHMGEFSVCDSVSVWVGDKTTATDIKGKEVTVLAEVNINNSVFRQYFFETKCRASNPVESGCRGIDSKHWNSYCTTTHTFVKALTTDEKQAAWRFIRIDTACVCVLSRKATRRG
# modifications: beta-NGF
# notes: purified from male mouse submaxillary gland; β-NGF is a dimer of two identical 118 amino acid chains
# B2: NGF denatured by reduction and carbamoylmethylation: NGF (30 μg) denatured by reduction and carbamoylmethylation, used as control (protein, UniProt P01139 122-241, looked up)
# Beta-nerve growth factor: B1 Beta-nerve growth factor
# modifications: beta-NGF reduced and carbamoylmethylated (denatured)
# notes: NGF (30 μg) denatured by reduction and carbamoylmethylation, used as control
# Key:
# [1] = system: embryologic day 10 dorsal root ganglia neurons; test: Nonspecific toxicity: NGF-independent neurite outgrowth in response to CNTF; type: cell-based, chick; conditions: up to 2.6 μmoles/ml, FIG. 3
# Procedure: Potential nonspecific toxicity of peptide C5 (KGKE) was investigated with embryologic day 10 dorsal root ganglia neurons which also extend neurites in the presence of ciliary neurotrophic factor (CNTF) The effect of peptide C5 on NGF-independent neurite outgrowth was assessed.
# [2] = Resistance to proteolysis during cell culture; type: in vitro ADME; conditions: 2.0 μmole/ml in culture medium with cells and 100 pg/ml NGF, 24 hr, HPLC
# Procedure: The resistance of peptide C5 to proteolytic cleavage during cell culture was assessed. Quadruplicate wells were prepared each containing 2.0 μmole/ml of peptide in culture medium, 100 pg/ml NGF and cells as described above. After 24 hr in culture, 320 ul (4 wells×80 ul) of culture medium were collected. Fresh culture medium containing 2.0 μmole/ml of peptide was also prepared. Both samples of peptide-containing medium were filtered through a Centricon membrane (Amicon, Bedford) with a molecular weight cutoff of 10,000. 250 μl of filtrate was loaded onto a C18 uBondapak analytic HPLC column and run under the same conditions described above for peptide purification. The quantity of peptides in fresh compared to post-culture medium was determined by integration of their absorbance peaks. After 24 hr in culture, more than 80-85% of the initial quantity of peptide C5 was recovered..
# [3] = system: β-PP mRNA; test: β-protein precursor mRNA levels after NGF injection in neonatal hamsters; type: in vivo, hamster
# [4] = system: ChAT activity; test: ChAT activity in brain regions after intraventricular NGF in neonatal hamsters; type: in vivo, hamster; conditions: for increase in septal ChAT activity relative to vehicle-injected animals: single 30 μg injection PD 7, sacrifice PD 9
# Procedure: The birth of hamster litters was recorded as day zero. Hamsters were sacrificed at various postnatal ages and several brain regions were quickly dissected. The regions sampled included septum (basal forebrain), caudate-putamen, thalamus, hippocampus, frontolateral neocortex, and brainstem. Dissections were performed as described (Johnston et al, (1987) Neurochem Res 12:985-994). Subiculum was included with hippocampus. Caudal midbrain plus pons constituted the brainstem. For prenatal determinations,a timed-pregnancy animal was anesthetized with Nembutal (15 mg, i.p.) and individual embryos were removed and dissected. Whole forebrain was taken in place of frontolateral neocortex in prenatal animals. ChAT activity was determined in selected tissues as described (Mobley et al, (1985) Science 229:284-287).
# NGF was prepared by ion-exchange chromatography and characterized as described in the first example. In experiments in which multiple injections were given, NGF (30 μg) was administered intraventricularly (Mobley et al, (1985) supra) on postnatal day (PD) 3, 5 and 7 and sacrifice was on PD 9. Vehicle-injected animals served as controls. In experiments in which a single injection was given, NGF (30 μg) was administered intraventricularly on PD 7 and animals were sacrificed on PD 9. Controls included animals treated with NGF (30 μg) denatured by reduction and carbamoylmethylation (Morris et al, (1971) Neurobiology 1:64-67), or injection vehicle alone.
# [5] = system: dissociated embryonic chick dorsal root ganglia neurons; test: NGF bioassay: support of neurite outgrowth/neuronal survival without NGF (agonist activity); type: cell-based; conditions: 24 hr culture
# From the text: After synthesis, the peptides of the present invention may then be assayed to determine their activity in the NGF bioassay using dissociated embryonic chick dorsal root ganglia neurons according to published procedures, such as, for example, Riopelle et al, (1981) J Neurobiol 12:175-186 or Varon et al (1981) Dev Brain Res 1:73-87. […] If the peptide of interest is capable of inhibiting neuronal attachment, survival or neurite outgrowth in the presence of NGF, the peptide is defined as an antagonist. Similarly, if the peptide is capable of supporting neuronal attachment, survival or neurite outgrowth in the absence of NGF, it is defined as an agonist.
# NGF bioassays using dissociated embryonic chick dorsal root ganglia neurons have been described (Varon et al, (1981) Dev Brain Res 1:73-87); Riopelle et al, (1981) J Neurobiol 12:175-186). Approximately 30 dorsal root ganglia were dissected from each developmental day 8 chick embryo. […] During this incubation, non-neurons more readily attach to the substratum; therefore, the resulting supernatant contained a relatively enriched neuronal population (80-90% neurons). […]
# The results obtained were similar in each experiment; FIG. 1A represents the data obtained from the second experiment. […] Neurite outgrowth was assessed by phase contrast microscopy. The number of neurite-bearing cells in a fixed area of the well was counted. […]
# [6] = system: PrP; conditions: hamster, in vivo
# [7] = system: PrP mRNA; conditions: hamster, in vivo
molecule,measurement,setting,value
"NCCCC[C@H](NC(=O)CNC(=O)[C@@H](N)CCCCN)C(=O)N[C@@H](CCC(=O)O)C(N)=O [C5, KGKE-NH2] (H-KGKE-NH2)",effect on number of neurons bearing neurites in response to CNTF,[1],no detectable effect
same,initial quantity of peptide recovered after culture,[2],80-85%
B1,increase in β-PP mRNA levels relative to vehicle-injected animals,"[3]; single treatment on PD7, septum",4 fold
same,increase in β-PP in thalamus,"[3]; single treatment, FIG. 6",no increase
same,increase in septal ChAT activity,"[4]; 30 μg intraventricularly PD 3, 5, 7, sacrifice PD 9, FIG. 5A",increased almost two-fold
same,increase in septal ChAT activity relative to vehicle-injected animals,[4],100%
same,septal ChAT activity (mean±SEM),"[4]; single 30 μg injection PD 7, sacrifice PD 9, n=4",44.0±5.0 nmol acetylcholine (ACh) formed/hr/mg protein
same,ChAT activity in caudate-putamen,"[4]; single injection, n=3",92.4±6.3 nmol acetylcholine (ACh) forme
same,increase in ChAT activity in caudate-putamen,"[4]; single injection, neonatal hamsters",approximately 65%
same,concentration giving maximum neurite outgrowth,[5],approximately 800 pg/ml
same,increase in PrP in septum (Western blot),[6],3.3 fold
same,effect on PrP mRNA levels in hippocampus,[7],no effect
same,effect on PrP mRNA levels in thalamus,[7],no effect
same,increase in PrP mRNA in caudate-putamen relative to vehicle-injected animals,[7],70%
same,increase in septal PrP mRNA levels,[7],~9 fold
same,increase in septal PrP mRNA relative to controls,[7],approximately 10 fold
B2,increase in septal ChAT activity relative to vehicle-injected animals,[4],No increase
same,increase in septal PrP mRNA levels,[7],No increase
